Data published in article PMC8442874.

Target: Soc-SpyCatcher fusion protein (displayed on T4 phage: T4-SpyCatcher phage) (bacteriophage T4)
Test: co-sedimentation

SUMO-RBD-SpyTag fusion protein, refolded (from UniProt P0DTC2 319-545) (domain or fragment)
copies per capsid (rRBD molecules per capsid): 300
